Data reported in patent EP4748858A1 (Nanjing Probio Biotech Co., Ltd., dated 2026).
Numbering of substitutions follows the chain as printed.

Legend:
[1] = target: T1, mouse CD7 (ACROBiosystems, CD7-M52H3) (mouse, UniProt P50283 24-150); experiment: indirect ELISA, plate coated with 1 µg/ml mouse CD7
T1 construct: Bought recombinant protein; also called Mouse CD7 protein
T1 sequence (looked up): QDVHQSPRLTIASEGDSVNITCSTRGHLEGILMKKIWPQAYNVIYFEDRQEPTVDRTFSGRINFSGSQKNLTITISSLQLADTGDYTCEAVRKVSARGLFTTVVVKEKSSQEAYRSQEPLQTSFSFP

[2] = target: T2, recombinant protein of the human CD7 extracellular domain, CD7-His (human, UniProt P09564 26-180); experiment: indirect ELISA, plate coated with 1 µg/ml human CD7, anti-human IgG Fc-HRP
T2 construct: range 25-645; also called human CD7-His protein; recombinant human CD7; not shown: His protein tag
T2 sequence (looked up): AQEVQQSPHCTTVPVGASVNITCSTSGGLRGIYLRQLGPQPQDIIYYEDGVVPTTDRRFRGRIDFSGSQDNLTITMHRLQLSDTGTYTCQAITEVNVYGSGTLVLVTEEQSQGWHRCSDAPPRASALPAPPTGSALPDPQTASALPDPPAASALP

[3] = target: T2, recombinant protein of the human CD7 …; experiment: SPR Biacore T200, antibody captured via Fc, human CD7 as analyte
[4] = target: T3, human CD7 expressed on cells (human, UniProt P09564 26-240); experiment: cell-based or functional assay
T3 sequence (looked up): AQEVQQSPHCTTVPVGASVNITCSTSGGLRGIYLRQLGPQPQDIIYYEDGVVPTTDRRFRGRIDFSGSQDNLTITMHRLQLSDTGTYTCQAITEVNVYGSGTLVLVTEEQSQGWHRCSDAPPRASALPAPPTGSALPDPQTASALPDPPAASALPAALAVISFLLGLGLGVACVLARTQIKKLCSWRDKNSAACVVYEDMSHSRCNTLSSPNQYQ

[5] = target: T3, human CD7 expressed on cells; experiment: cell-based or functional assay; remark: listed apart in the source

B1: AHP19495 (Fc fusion)
chain: AVQLVESGGGLVQPGGSLRLSCAASGFTASRDVMSWYRQPPGKERELVASIFSAGSKETYAESVKGRFTISIDNVKNTVNLQMDNLKPEDTAVYYCHRWPGYWGQGTQVTVSS
notes: Alpaca VHH expressed as fusion to human IgG1 Fc; not shown: human IgG1 Fc of expression vector pcDNA3.4-Fc (HuIgG1)
[1]
  binding result: no binding (tested: 8 µg/ml (about 100 nM))
[2]
  EC50: 0.158 nM

B2: AHP19483 (Fc fusion)
chain: AVQLVDSGGGLVQAGGSLTLSCAASGRTFSRYTMGWFRQAPGKERELVASISWSGGSTDYADSVKDRFTISRDNTKNTVYLQMNGLKPEDTAVYYCNTDRMPYRPVVGGILSWEPYWGQGTQVTVTP
notes: as for B1
[1]
  binding result: no binding (tested: 8 µg/ml (about 100 nM))
[2]
  EC50: 0.231 nM

B3: AHP19485-VHH1 (Fc fusion)
chain: EVQLVESGGGLVQPGGSLRLSCAASERIFSIHAMGWYRQAPGKQRELVSSITIGGSTHYADSVKGRFTISRDNSKNTLYLQMNSLRAEDTAVYYCNSMLLAGTVGGSWGQGTLVTVSS
notes: Humanized VHH of AHP19485 expressed as fusion to human IgG1 Fc; not shown: human IgG1 Fc of expression vector pcDNA3.4-Fc (Human IgG1)
[3]
  Kd: 0.131 nM
  koff: 3.18e-05 s⁻¹
  kon: 243000 M⁻¹ s⁻¹

B4: AHP19485-VHH1 CAR (other)
chain: EVQLVESGGGLVQPGGSLRLSCAASERIFSIHAMGWYRQAPGKQRELVSSITIGGSTHYADSVKGRFTISRDNSKNTLYLQMNSLRAEDTAVYYCNSMLLAGTVGGSWGQGTLVTVSSGGGSGGGSGGGSGGGSEVQLVESGGGLVQPGGSLRLSCAASERIFSIHAMGWYRQAPGKQRELVSSITIGGSTHYADSVKGRFTISRDNSKNTLYLQMNSLRAEDTAVYYCNSMLLAGTVGGSWGQGTLVTVSSAAADYKDDDDKIEVMYPPPYLDNEKSNGTIIHVKGKHLCPSPLFPGPSKPFWVLVVVGGVLACYSLLVTVAFIIFWVRSKRSRLLHSDYMNMTPRRPGPTRKHYQPYAPPRDFAAYRSRVKFSRSADAPAYQQGQNQLYNELNLGRREEYDVLDKRRGRDPEMGGKPRRKNPQEGLYNELQKDKMAEAYSEIGMKGERRRGKGHDGLYQGLSTATKDTYDALHMQALPPR
[4]
  % Cytotoxicity of CAR-T cells against CCRF-CEM/Luc, E/T = 1 : 1: 57.4%
  % Cytotoxicity of CAR-T cells against CCRF-CEM/Luc, E/T = 5 : 1: 61.2%
  % Cytotoxicity of CAR-T cells against CCRF-CEM/Luc, E/T = 20 : 1: 78.2%
[5]
  % Cytotoxicity of CAR-T cells against Jurkat/Luc, E/T = 1 : 1: 29.7%
  % Cytotoxicity of CAR-T cells against Jurkat/Luc, E/T = 5 : 1: 86%
  % Cytotoxicity of CAR-T cells against Jurkat/Luc, E/T = 20 : 1: 99.4%

B5: AHP19487 (Fc fusion)
chain: DVQLVESGGGLVQPGGSLRLSCAFPGSAFSFYFMGWYRQAPGKQRELVGDITPGGTANYADSVKGRFTISRDSAKNTVYLQMNSLKPEDTAVYYCNADRRVTIRPDGYWGQGTQVTVSS
notes: as for B1
[1]
  binding result: no binding (tested: 8 µg/ml (about 100 nM))
[2]
  EC50: 0.173 nM

B6: AHP19494 (Fc fusion)
chain: QVKLEESGGGLVQAGGSLRLSCAAPGRTLSASIKAWFRQAPGKDREFAAAIRWSGDSTYYADSVKGRFTISRDNAKNTVDLQMNSLKPEDTAVYYCNAGGLLSNGYQPGSSWGQGTQVTVSS
notes: as for B1
[1]
  binding result: no binding (tested: 8 µg/ml (about 100 nM))
[2]
  EC50: 1.47 nM

B7: AHP19484-VHH3 CAR (other)
chain: QVQLVESGGGLVKPGGSLRLSCAASGSSFHFAFMGWYRQAPGKQRELVADISPGNSTNYADPVKGRFTISRDNAKNSLYLQMNSLRAEDTAVYFCRDLRSWGAWGQGTLVTVSSGGGSGGGSGGGSGGGSQVQLVESGGGLVKPGGSLRLSCAASGSSFHFAFMGWYRQAPGKQRELVADISPGNSTNYADPVKGRFTISRDNAKNSLYLQMNSLRAEDTAVYFCRDLRSWGAWGQGTLVTVSSAAADYKDDDDKIEVMYPPPYLDNEKSNGTIIHVKGKHLCPSPLFPGPSKPFWVLVVVGGVLACYSLLVTVAFIIFWVRSKRSRLLHSDYMNMTPRRPGPTRKHYQPYAPPRDFAAYRSRVKFSRSADAPAYQQGQNQLYNELNLGRREEYDVLDKRRGRDPEMGGKPRRKNPQEGLYNELQKDKMAEAYSEIGMKGERRRGKGHDGLYQGLSTATKDTYDALHMQALPPR
[4]
  % Cytotoxicity of CAR-T cells against CCRF-CEM/Luc, E/T = 1 : 1: 69.7%
  % Cytotoxicity of CAR-T cells against CCRF-CEM/Luc, E/T = 5 : 1: 64.9%
  % Cytotoxicity of CAR-T cells against CCRF-CEM/Luc, E/T = 20 : 1: 94.1%
[5]
  % Cytotoxicity of CAR-T cells against Jurkat/Luc, E/T = 1 : 1: 60.5%
  % Cytotoxicity of CAR-T cells against Jurkat/Luc, E/T = 5 : 1: 94.5%
  % Cytotoxicity of CAR-T cells against Jurkat/Luc, E/T = 20 : 1: 100%

B8: AHP19509-VHH1 CAR (other)
chain: EVQLVESGGGLVQPGGSLRLSCAASGGTFNRYTMGWFRQAPGKEREFVSAISWSGGSTDYADSVKGRFTISRDNSKNTLYLQMNSLRAEDTAVYYCDTDRMPYRPVAAGILSWEANWGQGTLVTVSSGGGSGGGSGGGSGGGSEVQLVESGGGLVQPGGSLRLSCAASGGTFNRYTMGWFRQAPGKEREFVSAISWSGGSTDYADSVKGRFTISRDNSKNTLYLQMNSLRAEDTAVYYCDTDRMPYRPVAAGILSWEANWGQGTLVTVSSAAADYKDDDDKIEVMYPPPYLDNEKSNGTIIHVKGKHLCPSPLFPGPSKPFWVLVVVGGVLACYSLLVTVAFIIFWVRSKRSRLLHSDYMNMTPRRPGPTRKHYQPYAPPRDFAAYRSRVKFSRSADAPAYQQGQNQLYNELNLGRREEYDVLDKRRGRDPEMGGKPRRKNPQEGLYNELQKDKMAEAYSEIGMKGERRRGKGHDGLYQGLSTATKDTYDALHMQALPPR
[4]
  % Cytotoxicity of CAR-T cells against CCRF-CEM/Luc, E/T = 1 : 1: 74.8%
  % Cytotoxicity of CAR-T cells against CCRF-CEM/Luc, E/T = 5 : 1: 60.2%
  % Cytotoxicity of CAR-T cells against CCRF-CEM/Luc, E/T = 20 : 1: 84.6%
[5]
  % Cytotoxicity of CAR-T cells against Jurkat/Luc, E/T = 1 : 1: 62.4%
  % Cytotoxicity of CAR-T cells against Jurkat/Luc, E/T = 5 : 1: 93%
  % Cytotoxicity of CAR-T cells against Jurkat/Luc, E/T = 20 : 1: 99.6%

B9: AHP19511 (Fc fusion)
chain: AVQLVESGGGLVQPGGSLRLSCAASGFTFSNAVIGWYRQAPGKQRELVASITPGGRTTYPDSVKGRFIISRDNAKNTVYLEMNSLKLEDTAVYYCNDFRGLGGYWGQGTQVTVSS
notes: as for B1
[1]
  binding result: no binding (tested: 8 µg/ml (about 100 nM))
[2]
  EC50: 0.166 nM

B10: AHP19509-VHH1 (Fc fusion)
chain: EVQLVESGGGLVQPGGSLRLSCAASGGTFNRYTMGWFRQAPGKEREFVSAISWSGGSTDYADSVKGRFTISRDNSKNTLYLQMNSLRAEDTAVYYCDTDRMPYRPVAAGILSWEANWGQGTLVTVSS
notes: Humanized VHH of AHP19509 expressed as fusion to human IgG1 Fc; not shown: human IgG1 Fc of expression vector pcDNA3.4-Fc (Human IgG1)
[3]
  Kd: 0.1 nM
  koff: 3.04e-05 s⁻¹
  kon: 304000 M⁻¹ s⁻¹

B11: AHP19481 (Fc fusion)
chain: AVQLVDSGGGLVQPGGSLRLSCAASGFTFSGFAMSWYRQAPGKERELVATISRFGESSNYEDSVKGRFTISRDNAKDTGYLQMNSLKPEDTAVYYCNAEAPAGSLWYGNNYWGQGTQVTVSS
notes: as for B1
[1]
  binding result: no binding (tested: 8 µg/ml (about 100 nM))
[2]
  EC50: 0.238 nM

B12: AHP19490 (Fc fusion)
chain: B11 chain with A1Q, D6E, A33D, E56G, A75V, G79V, N97Y, E99L, Y107H, N109D
notes: as for B1
[1]
  binding result: no binding (tested: 8 µg/ml (about 100 nM))
[2]
  EC50: 0.268 nM

B13: AHP19472 (Fc fusion)
chain: B11 chain with R19G, A33D, E46M, S52T, E56G, K76R, G79V, V93M, N97H, Y107F
notes: Alpaca VHH expressed as fusion to human IgG1 Fc in HEK293-6E; not shown: human IgG1 Fc of expression vector pcDNA3.4-Fc (HuIgG1)
[1]
  binding result: no binding (tested: 8 µg/ml (about 100 nM))
[2]
  EC50: 0.179 nM

B14: VHH6 CAR (other)
chain: DVQLQESGGGLVQAGGSLRLSCAVSGYPYSSYCMGWFRQAPGKEREGVAAIDSDGRTRYADSVKGRFTISQDNAKNTLYLQMNRMKPEDTAMYYCAARFGPMGCVDLSTLSFGHWGQGTQVTVSITGGGGSGGGGSGGGGSGGGGSDVQLQESGGGLVQAGGSLRLSCAVSGYPYSSYCMGWFRQAPGKEREGVAAIDSDGRTRYADSVKGRFTISQDNAKNTLYLQMNRMKPEDTAMYYCAARFGPMGCVDLSTLSFGHWGQGTQVTVSITAAADYKDDDDKIEVMYPPPYLDNEKSNGTIIHVKGKHLCPSPLFPGPSKPFWVLVVVGGVLACYSLLVTVAFIIFWVRSKRSRLLHSDYMNMTPRRPGPTRKHYQPYAPPRDFAAYRSRVKFSRSADAPAYQQGQNQLYNELNLGRREEYDVLDKRRGRDPEMGGKPRRKNPQEGLYNELQKDKMAEAYSEIGMKGERRRGKGHDGLYQGLSTATKDTYDALHMQALPPR
[4]
  % Cytotoxicity of CAR-T cells against CCRF-CEM/Luc, E/T = 1 : 1: 74.5%
  % Cytotoxicity of CAR-T cells against CCRF-CEM/Luc, E/T = 5 : 1: 51.2%
  % Cytotoxicity of CAR-T cells against CCRF-CEM/Luc, E/T = 20 : 1: 71.1%
[5]
  % Cytotoxicity of CAR-T cells against Jurkat/Luc, E/T = 1 : 1: 43.4%
  % Cytotoxicity of CAR-T cells against Jurkat/Luc, E/T = 5 : 1: 67.2%
  % Cytotoxicity of CAR-T cells against Jurkat/Luc, E/T = 20 : 1: 93.6%

B15: AHP19508 (Fc fusion)
chain: AVQLVDSGGGLVQPGGSLRLSCAASGDFARLYEMAWYRQTPGQQREVVAQITVGGSTKYADSVKGRFTISRDSAKNTVYLQMNSLRPEDTAVYYCHAWPALWGQGTQVTVSS
notes: as for B1
[1]
  binding result: no binding (tested: 8 µg/ml (about 100 nM))
[2]
  EC50: 0.2 nM

B16: AHP19484-VHH3 (Fc fusion)
chain: QVQLVESGGGLVKPGGSLRLSCAASGSSFHFAFMGWYRQAPGKQRELVADISPGNSTNYADPVKGRFTISRDNAKNSLYLQMNSLRAEDTAVYFCRDLRSWGAWGQGTLVTVSS
notes: Humanized VHH of AHP19484 expressed as fusion to human IgG1 Fc; not shown: human IgG1 Fc of expression vector pcDNA3.4-Fc (Human IgG1)
[3]
  Kd: 0.118 nM
  koff: 5.19e-05 s⁻¹
  kon: 440000 M⁻¹ s⁻¹
